Data on one molecule can be found in patent US20150202250A1.

The assay concerns the target isolated NS2B-NS3 protein complex from the DENV-2 viral genome (Dengue virus type 2 (DENV-2)) (UniProt P14340). Put plainly: cell-based or functional assay.
Chain of UniProt P14340 (P14340 1394-1440 limits assumed, chain 1 of 2): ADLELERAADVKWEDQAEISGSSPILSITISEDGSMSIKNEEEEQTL
Chain of UniProt P14340 (P14340 1476-1660 limits assumed, chain 2 of 2): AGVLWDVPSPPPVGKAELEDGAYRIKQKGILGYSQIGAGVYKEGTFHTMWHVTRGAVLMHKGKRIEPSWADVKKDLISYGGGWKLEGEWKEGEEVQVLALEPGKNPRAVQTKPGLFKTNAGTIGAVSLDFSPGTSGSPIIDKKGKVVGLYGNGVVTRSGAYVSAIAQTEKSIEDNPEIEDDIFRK

B1: RetroMAD1 (protein)
chain: MGRICRCICGRGICRCICGVPGVGVPGVGGATGSDVNFDLSTATAKTYTKFIEDFRATLPFSHKVYDIPLLYSTISDSRRFILLDLTSYAYETISVAIDVTNVYVVAYRTRDVSYFFKESPPEAYNILFKGTRKITLPYTGNYENLQTAAHKIRENIDLGLPALSSAITTLFYYNAQSAPSALLVLIQTTAEAARFKYIERHVAKYVATNFKPNLAIISLENQWSALSKQIFLAQNQGGKFRNPVDLIKPTGERFQVTNVDSDVVKGNIKLLLNSRASTADENFITTMTLLGESVVEFPWALWKTMLKELGTMALHAGKAALGAAADTISQGTQVPGVGVPGVGKLAAALEHHHHHH
B1: the inhibition of NS2B-NS3 protease (cleavage of fluorogenic peptide substrate) (% inhibition at 10.8 µM) was 94.3.
